This passage reports Kd results from article PMC5777889.

Among the test systems are LeuO (Vibrio cholerae); H-NS (Vibrio cholerae); HapR (Vibrio cholerae).
What all share (experiment): EMSA
Conditions in all cases: buffer, room temperature
(In general: Mobility shift assays separate free from complexed probe on a gel.)

As for vieSAB promoter, El Tor biotype (EMSA), the Kd (in general, a measure of binding affinity in units of concentration) stood at 31.2 nM in the series on LeuO (Vibrio cholerae) and 52.3 nM in the series on H-NS (Vibrio cholerae).
In the same order, the values of “vieSAB promoter, classical biotype (EMSA)” are 31.2 nM and 44.1 nM.
As for vieSAB promoter -198 to +70, the dissociation constant (Kd) in the series with HapR (Vibrio cholerae) was 174 nM.
